According to paper PMC9482650, “Quantitative fragmentomics allow affinity mapping of interactomes” (Nature Communications, 2022):

T1: LNX2_3, Q8N448
T1 sequence (Q8N448 463-564, limits assumed, looked up): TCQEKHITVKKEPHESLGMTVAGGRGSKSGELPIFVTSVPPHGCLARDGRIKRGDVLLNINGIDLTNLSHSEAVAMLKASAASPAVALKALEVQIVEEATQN

T2: MPDZ_12, O75970
T2 sequence (O75970 1857-1958, limits assumed, looked up): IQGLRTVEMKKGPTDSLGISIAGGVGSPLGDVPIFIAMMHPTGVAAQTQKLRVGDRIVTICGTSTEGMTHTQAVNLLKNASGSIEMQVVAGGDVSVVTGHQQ

T3: DFNB31_3, Q9P202
T3 sequence (Q9P202 811-907, limits assumed, looked up): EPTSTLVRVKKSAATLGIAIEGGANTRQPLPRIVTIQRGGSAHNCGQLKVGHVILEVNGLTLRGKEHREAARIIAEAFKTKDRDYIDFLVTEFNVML

T4: GRIP1_2, Q9Y3R0
T4 sequence (Q9Y3R0 145-248, limits assumed, looked up): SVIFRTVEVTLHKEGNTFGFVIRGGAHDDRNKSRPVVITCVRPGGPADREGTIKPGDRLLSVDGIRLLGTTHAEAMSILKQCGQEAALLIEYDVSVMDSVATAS

T5: GRIP1_7, Q9Y3R0
T5 sequence (Q9Y3R0 999-1096, limits assumed, looked up): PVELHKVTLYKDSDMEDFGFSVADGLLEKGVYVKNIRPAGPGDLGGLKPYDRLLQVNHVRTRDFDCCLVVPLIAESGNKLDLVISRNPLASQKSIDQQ

T6: SNTB1, Q13884
T6 sequence (Q13884 107-205, limits assumed, looked up): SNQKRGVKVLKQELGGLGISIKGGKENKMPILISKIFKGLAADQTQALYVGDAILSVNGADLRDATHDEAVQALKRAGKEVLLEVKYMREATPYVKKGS

T7: NHERF3_4, Q5T2W1
T7 sequence (Q5T2W1 373-468, limits assumed, looked up): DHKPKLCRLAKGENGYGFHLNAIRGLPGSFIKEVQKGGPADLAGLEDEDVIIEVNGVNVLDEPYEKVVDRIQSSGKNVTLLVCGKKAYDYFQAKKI

T8: PARD3B_1, Q8TEW8
T8 sequence (Q8TEW8 196-299, limits assumed, looked up): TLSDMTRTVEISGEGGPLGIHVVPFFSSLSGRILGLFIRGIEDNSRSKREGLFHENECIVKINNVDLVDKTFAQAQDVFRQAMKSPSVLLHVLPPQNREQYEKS

T9: MPDZ_10, O75970
T9 sequence (O75970 1624-1722, limits assumed, looked up): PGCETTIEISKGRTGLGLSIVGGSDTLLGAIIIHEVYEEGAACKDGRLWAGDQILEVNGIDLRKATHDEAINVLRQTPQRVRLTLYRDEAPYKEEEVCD

T10: ARHGEF11, O15085
T10 sequence (O15085 42-136, limits assumed, looked up): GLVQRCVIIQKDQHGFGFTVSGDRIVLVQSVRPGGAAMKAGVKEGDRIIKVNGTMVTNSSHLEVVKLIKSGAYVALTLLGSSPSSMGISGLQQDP

T11: ARHGAP21, Q5T5U3
T11 sequence (Q5T5U3 45-169, limits assumed, looked up): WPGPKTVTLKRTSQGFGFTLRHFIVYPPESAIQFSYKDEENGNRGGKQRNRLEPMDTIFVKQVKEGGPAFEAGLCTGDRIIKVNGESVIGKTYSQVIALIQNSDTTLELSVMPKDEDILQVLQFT

T12: PCLO, Q9Y6V0
T12 sequence (Q9Y6V0 4491-4600, limits assumed, looked up): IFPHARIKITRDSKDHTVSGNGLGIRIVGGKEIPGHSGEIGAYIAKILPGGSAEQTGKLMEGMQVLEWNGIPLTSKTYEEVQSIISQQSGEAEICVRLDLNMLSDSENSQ

T13: SIPA1L2, Q9P2F8
T13 sequence (Q9P2F8 945-1036, limits assumed, looked up): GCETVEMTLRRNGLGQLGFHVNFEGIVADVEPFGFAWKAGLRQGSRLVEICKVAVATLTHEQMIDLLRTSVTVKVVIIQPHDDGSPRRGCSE

B1: PTTG2, Q9NZH5 (peptide)
chain: LPAVCYDIDI
B2: CACNA1A, O00555 (peptide)
chain: PYSESDDDWC
B3: MYOT, Q9UBF9 (peptide)
chain: QSGLYESEEL

Columns and labels:
Assay in all cases: holdup assay
Parameters in all cases: key: below the threshold = too weak to quantify, mostly under pKd 3.1 to 4
Settings in all cases: plain residues with an end cap or a label only (N-terminal biotin on a linker: ado-ado)
LNX2_3, Q8N448 = molecular target: T1, LNX2_3, Q8N448
MPDZ_12, O75970 = molecular target: T2, MPDZ_12, O75970
DFNB31_3, Q9P202 = molecular target: T3, DFNB31_3, Q9P202
GRIP1_2, Q9Y3R0 = molecular target: T4, GRIP1_2, Q9Y3R0
GRIP1_7, Q9Y3R0 = molecular target: T5, GRIP1_7, Q9Y3R0
SNTB1, Q13884 = molecular target: T6, SNTB1, Q13884
NHERF3_4, Q5T2W1 = molecular target: T7, NHERF3_4, Q5T2W1
PARD3B_1, Q8TEW8 = molecular target: T8, PARD3B_1, Q8TEW8
DLG4_2, P78352 = molecular target: DLG4_2, P78352
MPDZ_10, O75970 = molecular target: T9, MPDZ_10, O75970
FRMPD2_1, Q68DX3 = molecular target: FRMPD2_1, Q68DX3
ARHGEF11, O15085 = molecular target: T10, ARHGEF11, O15085
ARHGAP21, Q5T5U3 = molecular target: T11, ARHGAP21, Q5T5U3
IL16_4, Q14005 = molecular target: IL16_4, Q14005
MAST1, Q9Y2H9 = molecular target: MAST1, Q9Y2H9
IL16_3, Q14005 = molecular target: IL16_3, Q14005
PCLO, Q9Y6V0 = molecular target: T12, PCLO, Q9Y6V0
LNX1_3, Q8TBB1 = molecular target: LNX1_3, Q8TBB1
Inadl_3, Q8NI35 = molecular target: Inadl_3, Q8NI35
SIPA1L2, Q9P2F8 = molecular target: T13, SIPA1L2, Q9P2F8
GRIP2_5, Q9C0E4 = molecular target: GRIP2_5, Q9C0E4
MAGI2_3, Q86UL8 = molecular target: MAGI2_3, Q86UL8
MAGI2_6, Q86UL8 = molecular target: MAGI2_6, Q86UL8
LAP2, Q96RT1 = molecular target: LAP2, Q96RT1
Chain of LAP2, Q96RT1 (Q96RT1 other isoform, or with tags, fused parts or gaps): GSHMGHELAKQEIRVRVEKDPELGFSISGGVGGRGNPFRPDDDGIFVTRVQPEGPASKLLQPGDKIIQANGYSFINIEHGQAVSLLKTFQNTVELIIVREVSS

Chain of LNX1_3, Q8TBB1 (Q8TBB1 500-596): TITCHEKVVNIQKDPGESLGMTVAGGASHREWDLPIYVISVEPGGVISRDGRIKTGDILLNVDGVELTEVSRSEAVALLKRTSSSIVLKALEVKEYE
Chain of DLG4_2, P78352 (P78352 155-259): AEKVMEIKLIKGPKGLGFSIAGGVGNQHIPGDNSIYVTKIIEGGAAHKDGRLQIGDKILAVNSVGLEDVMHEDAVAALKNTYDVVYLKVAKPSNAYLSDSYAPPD
Chain of GRIP2_5, Q9C0E4 (Q9C0E4 544-642): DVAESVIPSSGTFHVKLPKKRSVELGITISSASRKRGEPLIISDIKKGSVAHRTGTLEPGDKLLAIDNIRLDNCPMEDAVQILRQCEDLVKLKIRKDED
Chain of IL16_4, Q14005 (Q14005 1229-1329): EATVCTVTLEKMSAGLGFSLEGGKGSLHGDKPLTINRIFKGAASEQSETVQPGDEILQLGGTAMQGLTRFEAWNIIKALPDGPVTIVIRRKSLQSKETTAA
Chain of FRMPD2_1, Q68DX3 (Q68DX3 770-861): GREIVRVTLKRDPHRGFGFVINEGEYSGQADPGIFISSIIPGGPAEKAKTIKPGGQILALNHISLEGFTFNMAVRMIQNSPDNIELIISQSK
Chain of MAGI2_3, Q86UL8 (Q86UL8 600-682): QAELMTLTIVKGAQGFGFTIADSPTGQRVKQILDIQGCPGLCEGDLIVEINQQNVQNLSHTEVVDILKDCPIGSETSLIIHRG
Chain of MAGI2_6, Q86UL8 (Q86UL8 1141-1229): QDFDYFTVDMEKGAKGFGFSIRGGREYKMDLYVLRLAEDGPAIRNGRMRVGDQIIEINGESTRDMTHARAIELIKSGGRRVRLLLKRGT
Chain of IL16_3, Q14005 (Q14005 1107-1207): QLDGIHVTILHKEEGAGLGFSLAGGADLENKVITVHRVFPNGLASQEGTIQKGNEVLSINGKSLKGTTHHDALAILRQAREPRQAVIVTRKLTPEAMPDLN
Chain of Inadl_3, Q8NI35 (Q8NI35 359-469): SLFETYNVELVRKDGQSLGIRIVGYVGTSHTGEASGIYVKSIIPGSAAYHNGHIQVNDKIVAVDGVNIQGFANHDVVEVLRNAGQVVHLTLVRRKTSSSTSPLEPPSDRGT
Chain of MAST1, Q9Y2H9 (Q9Y2H9 962-1065): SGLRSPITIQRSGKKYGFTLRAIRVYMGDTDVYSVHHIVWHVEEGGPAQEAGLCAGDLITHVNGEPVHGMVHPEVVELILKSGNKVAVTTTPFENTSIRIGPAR

Binder | pKd (LNX2_3, Q8N448) | pKd (MPDZ_12, O75970) | pKd (DFNB31_3, Q9P202) | pKd (GRIP1_2, Q9Y3R0) | pKd (GRIP1_7, Q9Y3R0) | pKd (SNTB1, Q13884) | pKd (NHERF3_4, Q5T2W1) | pKd (PARD3B_1, Q8TEW8) | pKd (DLG4_2, P78352) | pKd (MPDZ_10, O75970) | pKd (FRMPD2_1, Q68DX3) | pKd (ARHGEF11, O15085) | pKd (ARHGAP21, Q5T5U3) | pKd (IL16_4, Q14005) | pKd (MAST1, Q9Y2H9) | pKd (IL16_3, Q14005) | pKd (PCLO, Q9Y6V0) | pKd (LNX1_3, Q8TBB1) | pKd (Inadl_3, Q8NI35) | pKd (SIPA1L2, Q9P2F8) | further results
B1 | below the threshold | 3.48 | 3.9 | below the threshold | below the threshold | below the threshold | below the threshold | below the threshold | below the threshold | below the threshold | below the threshold | below the threshold | 4.02 | below the threshold | 4.08 | below the threshold | below the threshold | below the threshold | 4.63 | below the threshold | pKd (GRIP2_5, Q9C0E4): below the threshold; pKd (MAGI2_3, Q86UL8): below the threshold; pKd (MAGI2_6, Q86UL8): below the threshold; pKd (LAP2, Q96RT1): below the threshold
B2 | below the threshold | 3.92 | 3.6 | 3.62 | below the threshold | below the threshold | below the threshold | 3.61 | below the threshold | below the threshold | below the threshold | 3.51 | 4.17 | below the threshold | below the threshold | below the threshold | below the threshold | below the threshold | below the threshold | below the threshold | pKd (GRIP2_5, Q9C0E4): below the threshold; pKd (MAGI2_3, Q86UL8): below the threshold; pKd (MAGI2_6, Q86UL8): 4.17; pKd (LAP2, Q96RT1): 3.87
B3 | below the threshold | below the threshold | 3.5 | below the threshold | below the threshold | below the threshold | below the threshold | 3.86 | 3.53 | below the threshold | below the threshold | 4.38 | below the threshold | below the threshold | below the threshold | below the threshold | below the threshold | below the threshold | below the threshold | below the threshold | pKd (GRIP2_5, Q9C0E4): below the threshold; pKd (MAGI2_3, Q86UL8): below the threshold; pKd (MAGI2_6, Q86UL8): 4.24; pKd (LAP2, Q96RT1): 3.9
